From paper doi:10.64898/2025.12.11.693820, “DNA binding and lesion recognition by the bacterial interstrand DNA crosslink glycosylase AlkX”

Biological target: AbaAlkX Y300F (Acinetobacter baumannii, UniProt A0A0D5YK62 1-385, Y300F;V301L)
Test: EMSA; 10 nM DNA; binding unaffected relative to WT
Details: protein: recombinant; tags: His6-SUMO tag cleaved (3C); label: Cy5 on strand 1; FAM on strand 2 (both printed at 5' end); blunt; covalently crosslinked strands

B1: 2F-NM8-ICL DNA (dsDNA)
DNA 1: TTTATTTTTATTTGACTTTTATTTTT
DNA 2: AAAAATAAAAGTCAAATAAAAATAAA
binding result: binds
